In article PMC3763369 (Structure(London, England:1993), 2013):
Blank lines part the entries; values can stand above or below the binder they belong to.

Experiments:
[1] = target: T1, FANCM C-terminal fragment (FANCMCTD), residues 1,799-2,048 (human, UniProt Q8IYD8 1799-2048); test: crystal structure
T1 sequence (looked up): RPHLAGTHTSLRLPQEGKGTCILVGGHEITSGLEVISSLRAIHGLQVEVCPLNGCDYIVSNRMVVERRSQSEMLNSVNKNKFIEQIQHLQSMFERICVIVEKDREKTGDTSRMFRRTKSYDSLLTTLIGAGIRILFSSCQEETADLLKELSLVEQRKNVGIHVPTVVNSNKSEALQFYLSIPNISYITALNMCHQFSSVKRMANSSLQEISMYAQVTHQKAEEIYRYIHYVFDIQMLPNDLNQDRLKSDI

[2] = target: full-length FANCM (N-terminal Flag-tag, C-terminal 8His-tag) (human, UniProt Q8IYD8 1-2048); test: negative-stain single particle electron microscopy
FANCM CTD;FAAP24 = target: T2, FANCM CTD;FAAP24 (human?;human?, UniProt Q8IYD8;Q9BTP7 1799-2048;1-215, |); test: X-ray crystallography
T2 sequence 1: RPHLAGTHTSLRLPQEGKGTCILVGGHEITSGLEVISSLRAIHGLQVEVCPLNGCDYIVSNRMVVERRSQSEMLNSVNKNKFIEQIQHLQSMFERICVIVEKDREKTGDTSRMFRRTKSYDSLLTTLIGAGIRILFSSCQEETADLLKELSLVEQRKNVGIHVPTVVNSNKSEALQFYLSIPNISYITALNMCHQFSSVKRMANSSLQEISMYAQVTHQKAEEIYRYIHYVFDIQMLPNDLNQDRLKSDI
T2 sequence 2: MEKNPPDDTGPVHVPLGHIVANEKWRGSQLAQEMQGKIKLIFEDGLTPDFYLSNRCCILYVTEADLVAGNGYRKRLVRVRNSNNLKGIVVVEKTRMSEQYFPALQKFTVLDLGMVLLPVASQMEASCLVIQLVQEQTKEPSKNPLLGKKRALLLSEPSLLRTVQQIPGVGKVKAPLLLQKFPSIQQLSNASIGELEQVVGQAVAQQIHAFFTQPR

binding result [1]: binds
B1: FAAP24 (full length), partner in the FANCMCTD-FAAP24 complex (natural protein, human, UniProt Q9BTP7 1-215, looked up)
chain: MEKNPPDDTGPVHVPLGHIVANEKWRGSQLAQEMQGKIKLIFEDGLTPDFYLSNRCCILYVTEADLVAGNGYRKRLVRVRNSNNLKGIVVVEKTRMSEQYFPALQKFTVLDLGMVLLPVASQMEASCLVIQLVQEQTKEPSKNPLLGKKRALLLSEPSLLRTVQQIPGVGKVKAPLLLQKFPSIQQLSNASIGELEQVVGQAVAQQIHAFFTQPR

binding result [2]: binds
B2: FAAP24, untagged, co-expressed with full-length FANCM (natural protein, human, UniProt Q9BTP7 1-215, looked up)
chain: MEKNPPDDTGPVHVPLGHIVANEKWRGSQLAQEMQGKIKLIFEDGLTPDFYLSNRCCILYVTEADLVAGNGYRKRLVRVRNSNNLKGIVVVEKTRMSEQYFPALQKFTVLDLGMVLLPVASQMEASCLVIQLVQEQTKEPSKNPLLGKKRALLLSEPSLLRTVQQIPGVGKVKAPLLLQKFPSIQQLSNASIGELEQVVGQAVAQQIHAFFTQPR

B3: 11 bp crystallization duplex (dsDNA)
DNA 1: GATGATGCTGA
DNA 2: TCAGCATCATC
binding result (FANCM CTD;FAAP24): binds
